Source: publication PMC10286459, “The development of an anti-cancer peptide M1-21 targeting transcription factor FOXM1” (Cell & Bioscience, 2023)
Non-standard residues stand in square brackets, D forms with d. No end group written: not given here.

Legend:
GFP-FOXM1(688-748) = target: T1, GFP-FOXM1(688-748) (human); experiment: MST
T1 construct: also called GFP-M1(688–748); FOXM1 C-terminus
T1 sequence (Q08050 688-748, looked up): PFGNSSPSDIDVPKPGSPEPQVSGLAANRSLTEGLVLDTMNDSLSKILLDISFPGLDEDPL

GFP-FOXM1(1-138) = target: T2, GFP-FOXM1(1-138) (human, UniProt Q08050 1-138); experiment: MST
T2 construct: also called GFP-M1(1-138); FOXM1 N-terminal domain
T2 sequence (looked up): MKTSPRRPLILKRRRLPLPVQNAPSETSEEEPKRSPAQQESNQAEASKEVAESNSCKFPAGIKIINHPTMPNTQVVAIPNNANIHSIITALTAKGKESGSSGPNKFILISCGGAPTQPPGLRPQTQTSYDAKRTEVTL

GFP-FOXM1(232-332) = target: T3, GFP-FOXM1(232-332) (human, UniProt Q08050-3 232-332); experiment: MST
T3 construct: also called GFP-M1(232–332); FOXM1 DBD
T3 sequence (looked up): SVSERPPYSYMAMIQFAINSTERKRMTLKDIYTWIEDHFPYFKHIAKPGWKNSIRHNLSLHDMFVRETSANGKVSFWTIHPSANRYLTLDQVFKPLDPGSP

GFP-FOXM1 = target: T4, GFP-FOXM1 (human, UniProt Q08050-3 1-801); experiment: MST
T4 sequence (looked up): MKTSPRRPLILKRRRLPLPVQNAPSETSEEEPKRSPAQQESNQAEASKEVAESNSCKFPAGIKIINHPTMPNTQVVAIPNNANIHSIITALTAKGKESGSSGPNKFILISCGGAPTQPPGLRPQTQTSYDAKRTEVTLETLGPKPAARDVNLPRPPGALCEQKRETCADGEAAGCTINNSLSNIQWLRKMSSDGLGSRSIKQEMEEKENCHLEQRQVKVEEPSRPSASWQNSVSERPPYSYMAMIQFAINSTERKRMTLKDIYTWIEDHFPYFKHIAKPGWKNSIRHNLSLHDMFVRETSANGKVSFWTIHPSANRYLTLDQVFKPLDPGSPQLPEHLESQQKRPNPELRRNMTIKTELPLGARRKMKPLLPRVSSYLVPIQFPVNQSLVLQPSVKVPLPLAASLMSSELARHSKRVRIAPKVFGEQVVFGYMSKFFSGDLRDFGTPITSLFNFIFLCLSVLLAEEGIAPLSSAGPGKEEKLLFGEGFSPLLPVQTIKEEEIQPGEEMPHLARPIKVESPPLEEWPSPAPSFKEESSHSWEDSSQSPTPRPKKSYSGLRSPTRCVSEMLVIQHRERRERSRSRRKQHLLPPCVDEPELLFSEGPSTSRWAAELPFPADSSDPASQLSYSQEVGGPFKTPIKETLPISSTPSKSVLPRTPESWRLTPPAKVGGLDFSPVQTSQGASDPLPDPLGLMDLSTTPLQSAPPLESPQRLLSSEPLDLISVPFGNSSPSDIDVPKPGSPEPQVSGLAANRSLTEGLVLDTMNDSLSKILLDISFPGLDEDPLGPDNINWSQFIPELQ

endogenous FOXM1 protein = target: T5, endogenous FOXM1 protein (human (endogenous in 293T and …, UniProt Q08050 1-763)); experiment: cell-based or functional assay
T5 sequence (looked up): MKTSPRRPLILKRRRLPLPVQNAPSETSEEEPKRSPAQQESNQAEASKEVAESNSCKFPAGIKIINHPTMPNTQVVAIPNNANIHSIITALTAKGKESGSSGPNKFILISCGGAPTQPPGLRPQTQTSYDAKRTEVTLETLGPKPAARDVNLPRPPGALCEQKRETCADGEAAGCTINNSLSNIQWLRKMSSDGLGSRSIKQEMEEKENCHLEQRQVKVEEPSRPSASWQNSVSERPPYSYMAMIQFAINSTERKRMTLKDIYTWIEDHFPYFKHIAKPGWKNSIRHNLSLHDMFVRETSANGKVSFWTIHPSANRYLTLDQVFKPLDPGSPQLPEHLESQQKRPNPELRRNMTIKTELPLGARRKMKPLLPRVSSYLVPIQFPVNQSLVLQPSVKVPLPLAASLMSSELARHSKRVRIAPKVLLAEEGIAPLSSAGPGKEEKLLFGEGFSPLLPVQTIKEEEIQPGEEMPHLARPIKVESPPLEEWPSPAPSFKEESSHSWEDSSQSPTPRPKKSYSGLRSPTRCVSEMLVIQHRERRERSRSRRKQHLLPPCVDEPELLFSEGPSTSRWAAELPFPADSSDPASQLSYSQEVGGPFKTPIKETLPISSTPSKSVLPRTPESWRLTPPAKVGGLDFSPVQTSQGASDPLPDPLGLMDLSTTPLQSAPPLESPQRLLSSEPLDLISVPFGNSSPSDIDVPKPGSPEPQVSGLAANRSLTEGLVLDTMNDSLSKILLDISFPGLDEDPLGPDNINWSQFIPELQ

B1: M1-21 (peptide)
chain: [dQ][dT][dQ][dP][dR][dL]G[dP][dP][dQ][dT][dP][dA]GG[dC][dS][dI][dL][dI][dF]
modifications: not fully specified; also: retro-inverso, chain direction relative to parent not given here
- Kd (GFP-FOXM1(688-748)): 1.79 µM
- Kd (GFP-FOXM1(1-138)): 6.27 µM
- Kd (GFP-FOXM1(232-332)): 5.71 µM
- Kd (GFP-FOXM1): 12.5 µM
- IC50 of cell viability, MDA-MB-231 cells, 48 h (trypan blue) (endogenous FOXM1 protein): 33.8 µM
